Target: calmodulin (in the CaMKI and calcineurin activity assays)
Test: cell-based or functional assay

What does the source list for phosphorylated DARPP-21?
inhibition of CaMKI kinase activity in vitro, IC50: 1.2 µM; inhibition of calcineurin phosphatase activity in vitro, IC50: 1 µM
